Test results published in the nanobody polyreactivity screen of Harvey et al. (2022).

test: yeast display, Sf9 membrane polyspecificity reagent, FACS + sequencing; frameworks hold sequencing errors
In short: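 Using colony PCR, genes from sorted yeast display clones were amplified, then sequenced on MiSeq at 2 × 250 and filtered by CDR length. The clones had been stained with 10% biotinylated, detergent-solubilized Sf9 membrane reagent for 1 hour at 4 °C and sorted by FACS into low and high (top ~1%) gates on anti-HA and streptavidin fluorescence. Polyreactivity labels come from the gate of origin.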

Sequence	polyreactivity (PSR sort gate)
QVQLVESGGGLVQAGGSLRLSCAASGSILTGNAMGWYRQAPGKERELVAGITVGGTSTYYADSVKGRFTISRDNAKNTVYLQMNSLKPEDTAVYYCAAGYRSYWGVYDFDYWGQGTQVTVSS	low polyreactivity
QVQLVESGGGLVQAGGSLRLSCAASGSILTVYAMGWYRQAPGKERELVAAITSSGGITYYADSVKGRFTISRDNAKNTVYLQMHSLKPEDTAVYYCAAYGYGSNYRYTGYYYWGQGTQVTVSS	low polyreactivity
QVQLVESGGGLVQAGGSLRLSCAASGSILVEYAMGWYRQAPGKERELVAGISGSTGTTYYADSVKGRFTISRDNAKNTVYLQMNSLKPEDTAVYYCAKLFPVARPQYGYWGQGTQVTVSS	low polyreactivity
QVQLVESGGGLVQAGGSLRLSCAASGSILVLNDMGWYRQAPGKERELVATITSGGNTYYADSVKGRFTISRDNAKNTVYLQMNSLKPEDTAVYYCNARWQRPYDYWGQGTQVTVSS	low polyreactivity
QVQLVESGGGLVQAGGSLRLSCAASGSILVRYAMGWYRQAPGKERELVAAITYSVGSTYYADSVKGRFTISRDNAKNTVYLQMNSLKPEDTAVYYCAASGGTEVLLMDYWGQGSQVTVSS	low polyreactivity
QVQLVESGGGLVQAGGSLRLSCAASGSILVYNAMGWYRQAPGKERELVDAISNTGRTYYADSVKGRFTISRDNAKNTVYLQMNSLKPEDTAVYYCADRFYRVLHRFGYWGQGTQVTVSS	high polyreactivity
QVQLVESGGGLVQAGGSLRLSCAASGSILVYYAMGWYRQAPGKERELVAAISSGGSTNYADSVKGRFTISRDNAKNTVYLQMNSLKPEDTAVYYCAKESGWVGAIHYDYWGQGTQVTVSS	low polyreactivity
QVQLVESGGGLVQAGGSLRLSCAASGSILWLNAMGWYRQAPGKERELVADITRGGSTYYADSVKGRFTISRDNAKNTVYLQMNSLTPEDTAVYYCAADAYTCQIPYYYFEHYYWGQGTQVTVSS	high polyreactivity
QVQLVESGGGLVQAGGSLRLSCAASGSILWYYAMGWYRQAPGKERELVATITSGGSTYYADSVKGRFTMSRDNAKNTVYLQMNILKTEDTAVYYCNADLAVDEYVYWGQGTQVTVSS	low polyreactivity
QVQLVESGGGLVQAGGSLRLSCAASGSILYIYAMGWYRQAPGKERELVAAITSSVGRTYYADSVKGRFTISRDNAKNTVYLQMNSLKPEDTAVYYCAAEYYYSQVAYDYWGQGTQVTVSS	high polyreactivity
QVQLVESGGGLVQAGGSLRLSCAASGSILYPNAMGWYRQAPGKERELVAAISSSGGRTYYADSVKGRFTISRDNAKNTVYLQMNSLKPEDTAVYYCATVSIAGPRYDYWGQGTQVTVSS	high polyreactivity
QVQLVESGGGLVQAGGSLRLSCAASGSILYSYAMGWYRQAPGKERELVARITKRGGRTYYADSVKGRFTISRDNAKNTVYILMNSLKPEDTAVYYCAADFQYSYGEYDYWGQGTQVTVSS	high polyreactivity
QVQLVESGGGLVQAGGSLRLSCAASGSILYVYAMGWYRPAPGKETELVAVITSGGSTNYADSVKGRFTISRDNAKNTVYLQMNSLKPEDTAVYYCAADPYSVYGGDYWGKGTQVTVSS	low polyreactivity
QVQLVESGGGLVQAGGSLRLSCAASGSILYVYAMGWYRQAPGKERELVAVITSGGSTNYADSVKGRFTISRDNAKNTVYLQMNSLKPEDTAVYYCRFKYAVAHHFWVYRYDYWGQGTQVTVSS	low polyreactivity
QVQLVESGGGLVQAGGSLRLSCAASGSILYYALGWYRQAPGKESELVATITRGGSTYYADSVKGRFTISRDNAKNTVYLQMNSLKPEDTAVYYCAARRAVRVGYYWHDISSYDYWGQGTQVTVSS	low polyreactivity
QVQLVESGGGLVQAGGSLRLSCAASGSILYYNAMGWYRQAHGKEREFVASISLTGGSTTYADSVKGRFTISRDNAKNTVYLQMNSLKPEDTAVYYCNATHYPAADRSTNNYGGGFDYWGEGTQVTVSS	low polyreactivity
QVQLVESGGGLVQAGGSLRLSCAASGSINHYAMGWYRQAPGKERELVAAISSSGGTTYYADSVKGRFTISRDNAKNTVYLQMNSLKPEDTAVYYCAADKLSGGLDYWGQGTQVTVSS	high polyreactivity
QVQLVESGGGLVQAGGSLRLSCAASGSISDIYTMGWYRQAPGKERELVAAITGSAGSTYADSVKGRFTLSRDNAKNTVYLQMNSLKPEDTAVYYCNAQPGDDVKVKLDYWGQGTQVTVSS	low polyreactivity
QVQLVESGGGLVQAGGSLRLSCAASGSISDWNAMGWYRQAPGKERELVAAINWSGDTTYYADSVKGRFTFSRDNSKNTVYLQMNSLKPEDTAVYYCAAYLVVDYDWYDYWGQGTQVTVSS	high polyreactivity
QVQLVESGGGLVQAGGSLRLSCAASGSISDWNAMGWYRQAPGKERELVAAINWSGDTTYYADSVKGRFTISRDTAKNTVYLQMNSLKPEDTAVYYCAADLVVDYEWYDYWGQGTQVTVSS	high polyreactivity
QVQLVESGGGLVQAGGSLRLSCAASGSISDYYAMGWYRQAPGKERELVAAISWDGGSTYYADTVKGRFTISRDNAKNTVYLQMNSLKPEDTAVYYCNAGSGASVGNHILYDYWGQGTQVTVSS	low polyreactivity

Sequence	polyreactivity (PSR sort gate)
QVQLVESGGGLVQAGGSLRLSCAASGSISGLNAMGWYRQAPGKERELVAAISRSGGRTYYADSVKGRFTISRDNAKNTVYLQMNSLKPEDTAVYYCAAVTTWRMDYWGQGTQVTVSS	high polyreactivity
QVQLVESGGGLVQAGGSLRLSCAASGSISGLYAMGWYRQAPGKERELVARIRWRGDSTYYADSVKGRFTISRDNAKNTVYLQMNSLNPEDTAVFYCAASAYSGKVNKYNYWGQGTQVTVSS	high polyreactivity
QVQLVESGGGLVQAGGSLRLSCAASGSISGYYTMGWYRQAPGKERELVAAISRSGVRTYYADSVKGRFTISRDNAMNTVYLQMNSLKPEDTAVYYCARKDSSLGDYWGQGTQVTVSS	high polyreactivity
QVQLVESGGGLVQAGGSLRLSCAASGSISGYYVMGWYRQAPGKERELVAAITWRGGSTYYADSVKGRFTISRDNAKNTVYLQMNSLKPEDTAVYYCNKVPGRRSTFEYWGQGTQVTVSS	high polyreactivity
QVQLVESGGGLVQAGGSLRLSCAASGSISIRNAMGWYRQAPGTERELVAAITYSGGSTYYADSVKGRFTISRDNAKNTVYLQLNRLKPEDTAVYYCAKDHYRFRYDYWGQGTQVTVSS	low polyreactivity
QVQLVESGGGLVQAGGSLRLSCAASGSISKFYAMGWYRQAPGKERELVAAISSGGITNYADSLKGRFTISRDNAKNTVYLQMNSLKPEDTAVYYCAKDYPYYEGAKYYYWGQGTQVTVSS	high polyreactivity
QVQLVESGGGLVQAGGSLRLSCAASGSISKINAMGWYRQAPGKERELVAAINTGDSTYYADSVKGRFTISRDNEKNTVYLQMNSLKPEDTAVYYCAAEGSPTGYDYWGQGTQVTVSS	low polyreactivity
QVQLVESGGGLVQAGGSLRLSCAASGSISKYTMGWYRQAPGKERELVAAINWSGGSTYADSVKGRFTISRDNAKNTVYLQMNSLKPEATAVYYCNARAQRGYFGYRYNYWGQGTQVTVSS	high polyreactivity
QVQLVESGGGLVQAGGSLRLSCAASGSISLLYAMGWYRQAPGKDRELVAAISSGTDDTYYADSVKGRFTISRDNAKNTVYLQMNSLKPEDTAVYYCAADPLFKDDLWPVRVRVDYWGQGTQVTVSS	low polyreactivity
QVQLVESGGGLVQAGGSLRLSCAASGSISQTYAMGWYRQAPGKERELVAAISSSGASTYYADSVKGRFTISRDNAKNTVYLQMNCLKPEDTAVYYCAALGRYRYIYNYWGQGTQVTVSS	high polyreactivity
QVQLVESGGGLVQAGGSLRLSCAASGSISRYAMGWSRQAPGKERELVAAITRSGGSTHYADSVKGRFTISRDNAKNTVYLQMNSLKPEDTAVYYCATRYYRGVIRYPYDSWGQGTQVTVSS	high polyreactivity
QVQLVESGGGLVQAGGSLRLSCAASGSISSGYFMGWYRQAPGKERELVAAISFSGGSTYYADSVKGRFTISRDNAKNTVYLQMNSLKPEDTAVYYCNALFWYRYFSGVSQDYDYWGQGTQVTVSS	high polyreactivity
QVQLVESGGGLVQAGGSLRLSCAASGSISSKNSMGWYRQAPGKEREFVAVISGTGGSTYYSDSVKGRFTISRDIAKNTVYLQMNSLKPEDTAVYYCAADFPWSTKSWHPDSGDSWGQGTQVTVSS	low polyreactivity
QVQLVESGGGLVQAGGSLRLSCAASGSISTFYAMGWYRQAPGKEREFVAAISTRDGTTRYADSVKGRFTISRDNAKNTVYLQMNSLKPEDTAVYYCAAKGGGVWLYARIYSDYYWGQGTQVTVSS	low polyreactivity
QVQLVESGGGLVQAGGSLRLSCAASGSISTPYTMGWYRQAPGKERELVADISWIGDTTSYADSVKGRFTISRDNAKNTVYLLMNSLKPEDTAVYYCNAEHRGYEYWGQGTQVTVSS	low polyreactivity
QVQLVESGGGLVQAGGSLRLSCAASGSISTWYAMGWYRQAPGKERELVAAINSGDSTYYADSVKGRFTISRDNAKNTVYLQMNSLKPEDTAVYYCAASSYSSKPFDYWGQGTQVTVSS	high polyreactivity
QVQLVESGGGLVQAGGSLRLSCAASGSISTYYAMGWYRQAPGKERELVAAITRNGGSTYYADSVKGRFTISRDNSKNTVYLQMNSLKPEDTAVYYCAARNAFGTYYYWGQGTQVTVSS	high polyreactivity
QVQLVESGGGLVQAGGSLRLSCAASGSISVANAMGWYRQAPGKERELVAAITDSGDDTYYADSVKGRFTISRDNAKNTVYLQMNSLKPEDTAVYYCAVEAWSVPPYDYWGQGTIVTVSS	low polyreactivity
QVQLVESGGGLVQAGGSLRLSCAASGSISYFNAMGWYIQAPGKERELVAAISRGATTYADSVKGRFTISRDNAKNTVYLQMNSLKPEDTAVYYCNAGLRGNIRKSYRYDSWGQGTQVTVSS	high polyreactivity
QVQLVESGGGLVQAGGSLRLSCAASGSISYFNAMGWYRPAPGKERELVAAITSGGSTYYADSVKGRFTISRDNAKNTVYLQMTSLKPEDTAVYYCNAPLEWGVYAAQNWDDGYWGQGTQVTVSS	low polyreactivity
